Test results: patent US20110136223A1 (Genentech, published 2011)
Each block holds one binder with its values, some of them ahead of it.

What was measured:
[1] = target: T1, recombinant soluble rat GDNFRα (rat, UniProt Q62997 25-430, limits assumed); assay: competition binding of 125I-rGDNF to soluble rGDNFRα, Scatchard analysis
T1 construct: also called rGDNFRα; GFR-alpha-1
T1 sequence: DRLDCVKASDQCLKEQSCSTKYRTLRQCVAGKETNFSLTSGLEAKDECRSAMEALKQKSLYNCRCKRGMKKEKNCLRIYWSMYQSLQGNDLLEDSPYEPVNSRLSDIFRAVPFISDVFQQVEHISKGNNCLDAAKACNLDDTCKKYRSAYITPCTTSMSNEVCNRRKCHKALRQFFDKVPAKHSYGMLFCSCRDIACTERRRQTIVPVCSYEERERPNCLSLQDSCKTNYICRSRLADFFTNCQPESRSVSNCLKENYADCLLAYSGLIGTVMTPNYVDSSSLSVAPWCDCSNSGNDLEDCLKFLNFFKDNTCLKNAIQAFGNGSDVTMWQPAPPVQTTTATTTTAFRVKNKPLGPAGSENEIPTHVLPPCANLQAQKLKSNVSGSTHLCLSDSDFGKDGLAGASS

[2] = target: T2, rat NTNRα, endogenous on embryonic (E14) rat spinal motoneurons (rat); assay: cell-based or functional assay
T2 sequence (chain, GPI-linked): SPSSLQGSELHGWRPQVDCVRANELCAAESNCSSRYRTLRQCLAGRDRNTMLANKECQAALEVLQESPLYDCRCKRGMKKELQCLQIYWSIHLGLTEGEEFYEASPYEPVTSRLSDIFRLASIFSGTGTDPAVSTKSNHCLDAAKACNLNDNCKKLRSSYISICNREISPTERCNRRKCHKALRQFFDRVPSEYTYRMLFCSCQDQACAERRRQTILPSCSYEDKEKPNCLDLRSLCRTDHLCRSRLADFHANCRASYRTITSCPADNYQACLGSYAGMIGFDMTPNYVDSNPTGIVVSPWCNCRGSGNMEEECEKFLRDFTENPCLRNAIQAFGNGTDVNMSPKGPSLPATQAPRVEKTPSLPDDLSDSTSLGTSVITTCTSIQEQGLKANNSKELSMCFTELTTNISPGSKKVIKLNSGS

[3] = target: T1, recombinant soluble rat GDNFRα; assay: displacement of 125I-rGDNF from soluble GDNFRα by unlabeled NTN (10 nM)
[4] = target: T1, recombinant soluble rat GDNFRα; assay: binding of biotinylated NTN

Kd [1]: 3 pM
B1: rat glial cell line-derived neurotrophic factor (ligand, UniProt Q07731 78-211, looked up)
chain: SPDKQAAALPRRERNRQAAAASPENSRGKGRRGQRGKNRGCVLTAIHLNVTDLGLGYETKEELIFRYCSGSCEAAETMYDKILKNLSRSRRLTSDKVGQACCRPVAFDDDLSFLDDSLVYHILRKHSAKRCGCI
modifications: 125I-labelled when used as tracer (iodinated either on tyrosine by the Bolton Hunter method or on lysine using lactoperoxidase)
notes: also called rGDNF; rat GDNF

Kd [3]: > 0.001 µM
B2: Neurturin (NTN), species not stated at the place of use (ligand, UniProt Q99748 96-197, looked up, species assumed)
Neurturin: ARLGARPCGLRELEVRVSELGLGYASDETVLFRYCAGACEAAARVYDLGLRRLRQRRRLRRERVRAQPCCRPTAYEDEVSFLDAHSRYHTVHELSARECACV
reduction of the motoneuron survival response to NTN after PIPLC treatment (FIG. 7C) [2]: 50 to 90% | survival of E14 rat spinal motoneurons, counted 72 hours after addition of factor [2]: 50%

Kd [4]: > 1000 µM
B3: mouse Neurturin (ligand, UniProt P97463 96-195, looked up)
chain: PGARPCGLRELEVRVSELGLGYTSDETVLFRYCAGACEAAIRIYDLGLRRLRQRRRVRRERARAHPCCRPTAYEDEVSFLDVHSRYHTLQELSARECACV
modifications: 125I-labelled when used as tracer
notes: also called mouse NTN; mNTN
